Test results: paper doi:10.1101/2020.08.02.233536

Legend:
[1] = biological target: His-tagged SARS-CoV RBD protein (binding studies) (SARS-CoV) (UniProt P59594); experiment: BLI
[2] = biological target: His-tagged SARS-CoV-2 RBD protein (binding studies) (SARS-CoV-2) (UniProt P0DTC2); experiment: BLI

Substance	Kd [1]	Kd [2]
COVA1–16 IgG1 antibody	125 nM	0.2 nM
COVA1–16 Fab, His-tagged	405 nM	46 nM
